How the values were obtained:
[1] = molecular target: P450 2C1028 (modified human cytochrome P450 2C10 expressed in E. coli) (human) (UniProt P11712); details: scale: nmol product formed min^-1
[2] = molecular target: P450 2C1029 (truncated human cytochrome P450 2C10 expressed in E. coli) (human) (UniProt P11712); details: scale: nmol product formed min^-1
[3] = molecular target: P450 2C9/10 purified from human liver microsomes (human) (UniProt P11712); details: scale: nmol product formed min^-1
[4] = molecular target: recombinant human P450 2E1 (construct 2E1 #18) expressed in E. coli (human) (UniProt P05181); details: scale: nmol 6-hydroxychlorzoxazone formed min^-1
[5] = molecular target: recombinant human P450 1A2 (construct 1024) expressed in E. coli (human) (UniProt P05177)
[6] = substrate: c1ccc2c(c1)cc1ccc3cccc4ccc2c1c34; test: Benzo(a)pyrene 3-hydroxylation in P450 1A1 reconstituted system; type: biochemical, human; details: other: 25 nM P450 1A1, 50 nM NADPH-cytochrome P450 reductase
Procedure: (§1) FIG. 42. Substrate concentration-dependent benzo(a)pyrene 3-hydroxylation (A) and 7-ethoxyresorufin O-deethylation (B) in a P450 1A1 reconstutited system. Benzo(a)pyrene 3-hydroxylation were assayed with 25 nM P450 1A1 and 50 nM NADPH-cytochrome P450 reductase. 7-Ethoxyresorufin O-deethylation were assayed with 5 nM P450 1A1 and 10 nM NADPH-cytochrome P450 reductase.
(§2) 7-Ethoxyresorufin O-dealkylation (Burke and Mayer, Drug Metab. Dispos. 3:245-253 (1975); Burke and Mayer, Chem.-Biol. Interactions 45:243-258 (1983)) and benzo(a)pyrene 3-hydroxylation (Nebert and Gelboin, J. Biol. Chem. 243:6242-6249 (1968); Guengerich in Principles and Methods of Toxicology, Hayes, A. W., Ed., 777-814, Raven Press, New York (1989)) were determined as described elsewhere. Protein concentrations were estimated using a bicinchoninic acid (BCA) method according to the instructions supplied by the manufacturer (Pierce Chemical Co., Rockford, Ill.).
(§3) Catalytic activities. The purified P450 1A1 protein was examined for catalytic activities in a conventional reconstitution system containing rabbit NADPH-P450 reductase and L-α-1,2-dilauroyl-sn-glycero-3-phosphocholine. P450 1A1 catalyzed benzo(a)pyrene 3-hydroxylation and 7-ethoxyresorufin O-deethylation at rates of 1.7 and 6.2 nmol product formed min^-1 (nmol P450)^-1, respectively (FIGS. 41A,B). […]

[7] = substrate: CCOc1ccc2nc3ccc(=O)cc-3oc2c1; test: 7-Ethoxyresorufin O-deethylation in P450 1A1 reconstituted system; type: biochemical, human; details: other: 5 nM P450 1A1, 10 nM NADPH-cytochrome P450 reductase
Procedure: as §1, §2, §3

In the case of “human liver cytochrome b5 (from UniProt P00167)”, the tolbutamide hydroxylation, reconstituted system [1] is reported as 0.57, the tolbutamide hydroxylation, reconstituted system [2] is reported as 1.77 and the tolbutamide hydroxylation, reconstituted system [3] is reported as 0.51. It also gave a chlorzoxazone 6-hydroxylation by purified P450 2E1 (Vmax) [4] of 5.56.

With “rabbit liver NADPH-P450 reductase (from UniProt P00389) (enzyme)” the anaerobic reduction of P450 1A2 (rate of reduction, formation of the Fe2+.CO complex) [5] was over 3 min⁻¹.

B1: purified recombinant human cytochrome P450 1A1, N-terminally modified (construct #17, SEQ ID NO: 5), expressed in E. coli (Homo sapiens; L2A) (protein)
chain: AFPISMSATEFLLASVIFCLVFWVIRASRPQVPKGLKNPPGPWGWPLIGHMLTLGKNPHLALSRMSQQYGDVLQIRIGSTPVVVLSGLDTIRQALVRQGDDFKGRPDLYTFTLISNGQSMSFSPDSGPVWAARRRLAQNGLKSFSIASDPASSTSCYLEEHVSKEAEVLISTLQELMAGPGHFNPYRYVVVSVTNVICAICFGRRYDHNHQELLSLVNLNNNFGEVVGSGNPADFIPILRYLPNPSLNAFKDLNEKFYSFMQKMVKEHYKTFEKGHIRDITDSLIEHCQEKQLDENANVQLSDEKIINIVLDLFGAGFDTVTTAISWSLMYLVMNPRVQRKIQEELDTVIGRSRRPRLSDRSHLPYMEAFILETFRHSSFVPFTIPHSTTRDTSLKGFYIPKGRCVFVNQWQINHDQKLWVNPSEFLPERFLTPDGAIDKVLSEKVIIFGMGKRKCIGETIARWEVFLFLAILLQRVEFSVPLGVKVDMTPIYGLTMKHACCEHFQMQLRS
notes: made in house; host or cells: E. coli DH5α, vector pCW
B1 was tested, and the Km [6] was 15 µM, the kcat [6] was 2.5 nmol product formed min^-1 (nmol P450)^-1 and the Km [7] was 0.58 µM. The kcat [7] was 8.3 nmol product formed min^-1 (nmol P450)^-1.

Source: patent US5886157A, “Expression and purification of human cytochrome P450” (Vanderbilt University, priority 1994, dated 1999)
